{
  "source": "paper PMC7821112",
  "about": "(The New Phytologist, 2020)",
  "molecules": {"B1": {"name": "MBP‐tagged DTH8 (Days‐to‐heading on chromosome 8) (natural protein, rice (Oryza sativa), UniProt Q0J7P4 1-297, looked up)", "chain": "MKSRKSYGHLLSPVGSPPLDNESGEAAAAAAAGGGGCGSSAGYVVYGGGGGGDSPAKEQDRFLPIANVSRIMKRSLPANAKISKESKETVQECVSEFISFVTGEASDKCQREKRKTINGDDLLWAMTTLGFEAYVGPLKSYLNRYREAEGEKADVLGGAGGAAAARHGEGGCCGGGGGGADGVVIDGHYPLAGGLSHSHHGHQQQDGGGDVGLMMGGGDAGVGYNAGAGSTTTAFYAPAATAASGNKAYCGGDGSRVMEFEGIGGEEESGGGGGGGERGFAGHLHGVQWFRLKRNTN"}},
  "key": {"[1]": {"target": "GST‐tagged Ghd7 (Grain number, plant height and heading‐date7) (rice (Oryza sativa)) (UniProt E5RQA1)", "experiment": "pull-down"}, "[2]": {"target": "T1, GST‐tagged Ghd7 (Grain number, plant height and heading‐date7) (rice (Oryza sativa), UniProt E5RQA1 1-257)", "T1 sequence (looked up)": "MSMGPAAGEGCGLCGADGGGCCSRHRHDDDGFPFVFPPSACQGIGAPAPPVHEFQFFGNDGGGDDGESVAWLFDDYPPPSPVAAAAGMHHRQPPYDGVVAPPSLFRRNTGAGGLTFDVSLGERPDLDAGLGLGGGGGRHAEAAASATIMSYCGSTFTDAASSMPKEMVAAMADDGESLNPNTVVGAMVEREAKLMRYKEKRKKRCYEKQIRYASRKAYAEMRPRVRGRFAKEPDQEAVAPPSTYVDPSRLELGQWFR", "experiment": "pull-down"}},
  "data": [
    {"molecule": "MBP‐tagged Hd1 (Heading date 1) (from UniProt Q9FDX8 1-395) (natural protein)", "values": [
      {"measurement": "stoichiometry N", "setting": "[1]", "value": 1}
    ]},
    {"molecule": "B1", "values": [
      {"measurement": "stoichiometry N", "setting": "[2]", "value": 1}
    ]}
  ]
}
